Results taken from the supplement of paper PMC10567573.
± gives the standard deviation.

Test: protein stability index of a GFP-peptide fusion (GPS, HEK-293T) (PSI 1-6); higher = more stable
[1] = treatment: DMSO, c terminus: a fixed tail appended
[2] = treatment: MLN4924 1 uM, 8 h, c terminus: a fixed tail appended
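Note: 24-mer peptide tiles fused after GFP, lentivirally expressed, FACS-sorted into six equal bins by GFP/DsRed ratio, decoded by Illumina sequencing, PSI is the read-weighted mean bin number.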

| Sequence | protein stability index [1] | protein stability index [2] | protein stability index (treatment: DMSO, c terminus: native) | protein stability index (treatment: MLN4924 1 uM, 8 h, c terminus: native) |
| --- | --- | --- | --- | --- |
| QPGLSFLNLGSGTGYLSSMVGLIL [PCMTD2] | 2.12 ± 0.15 | 2.28 ± 0.27 | – | – |
| QPPPAPPKKIMPEAHSHYLYGHML [PPFIA4] | 2.76 ± 0.26 | 2.91 ± 0.22 | – | – |
| QQLYRHGKAYRFLFGFSAVSIMYL [JAGN1] | 2.82 ± 0.2 | 3.28 ± 0.93 | – | – |
| QQPPPPRRAGAACTLRQKLIFSPC [WEE1] | 2.79 ± 0.46 | 2.94 ± 0.099 | – | – |
| QSIIAIIRAMGRLKIDFGDSARAD [GNAI1] | 2.44 ± 0.53 | 2.29 ± 0.93 | – | – |
| QSLTQRLHALKLRSPDASPSRAPP [GNAS] | 4.06 ± 0.17 | 4.14 ± 0.22 | – | – |
| QSSADGSQPPKKKPKTTNIELQGV [RBBP5] | 5.09 ± 0.16 | 5.26 ± 0.36 | – | – |
| QTASRSLVLSEDRKSVRYTRQKKN [TRIM15] | 4.83 ± 0.27 | 4.8 ± 0.24 | – | – |
| QTGDPTSPIKLSPTSPVYRGSSSG [MTUS2] | 4.76 ± 0.26 | 4.82 ± 0.2 | – | – |
| QTNKPALRAVRQRSEFTLMAKRIG [STX5] | 3.15 ± 0.29 | 3.35 ± 0.25 | – | – |
| QTRRASALIDRPAPYFERSSSKRY [EPB41L3] | 4.18 ± 0.24 | 4.17 ± 0.3 | – | – |
| QVAPLTHVFQRQKSELSDGIAILV [TRIM55] | 2.26 ± 0.49 | 2.26 ± 0.22 | – | – |
| QVITLDQVLDEVIPIHGKGNFPTM [TENT5D] | 2.29 ± 0.24 | 2.32 ± 0.25 | – | – |
| QWLRPHVSTKEQILDLLVLEQFLS [ZSCAN9] | 2.07 ± 0.5 | 2.22 ± 0.44 | – | – |
| QYEKMAEKNRKDAEDWFFSKTEEL [KRT17] | 4.68 ± 0.18 | 4.86 ± 0.18 | – | – |
| RAPQGCSGVDECARQEGLTFFGTE [PBXIP1] | 4.01 ± 0.35 | 4.3 ± 0.55 | – | – |
| RAVQGPEETVTQDCLQLIADSETP [TNFSF13B] | 5.38 ± 0.2 | 5.38 ± 0.15 | – | – |
| RCGYRLVRRQRSADEQLHCAGKAK [ESR2] | 3.69 ± 0.36 | 3.91 ± 0.26 | – | – |
| RDEESFFGERRIPRGRRISVICRS [ALKBH7] | 3.24 ± 0.24 | 3.65 ± 0.24 | – | – |
| RDEHRARAMKIPFTNDKIINLPVE [NFE2L1] | 4.12 ± 0.36 | 3.95 ± 0.14 | – | – |
| RDNAELENLIRERSQQQEPLLCPS [KRT33B] | 4.98 ± 0.23 | 4.87 ± 0.21 | – | – |
| REAKEGDCGDILRLIRELAEFEKL [SAT2] | 2.95 ± 0.3 | 3.09 ± 0.47 | – | – |
| REAKMICFKSVAKTPYDTSRRQEK [ELOA2] | 3.97 ± 0.22 | 4.11 ± 0.58 | – | – |

| Sequence | protein stability index [1] | protein stability index [2] | protein stability index (treatment: DMSO, c terminus: native) | protein stability index (treatment: MLN4924 1 uM, 8 h, c terminus: native) |
| --- | --- | --- | --- | --- |
| REPYYARPEPELETFSPPLPAGPG [CPXM2] | 4.7 ± 0.26 | 4.47 ± 0.38 | – | – |
| RETLKRKVSGNRCASPVTGPGSKR [ESR2] | 3.92 ± 0.32 | 4.1 ± 0.2 | – | – |
| RETNKSRGFAFVTFESPADAKDAA [RBMX] | 4.34 ± 0.32 | 4.39 ± 0.38 | – | – |
| RGAPRGGGRGGSRSDRGGGRSRY [RBMX] | – | – | 5.34 ± 0.14 | 5.33 ± 0.11 |
| RGAQGVILVYDIANRWSFEGMDRW [RAB40A] | 2.57 ± 0.37 | 2.28 ± 0.28 | – | – |
| RGDERILSILRHQNLLKELQDLAL [CHGA] | 2.36 ± 0.4 | 2.41 ± 0.29 | – | – |
| RGIIMTFGSGSNGCLGHGSLTDIS [NEK8] | 2.45 ± 0.22 | 2.4 ± 0.31 | – | – |
| RGLGLGGRRLKSPQAPDPEEEENR [FANCE] | 5.11 ± 0.23 | 5.58 ± 0.38 | – | – |
| RGNVVLRAQMIRNEYRKLHPVLHK [TRIM43] | 2.25 ± 0.38 | 2.77 ± 0.56 | – | – |
| RHTSPVFSPANPESSMEDCLAHLG [BCL2L13] | 4.24 ± 0.069 | 4.31 ± 0.29 | – | – |
| RILGLDQKKDCVPLMKPHRPWADT [HESX1] | 2.34 ± 0.17 | 2.36 ± 0.24 | – | – |
| RKDKDVARLQDFQELELVLMISEN [ANKRD40] | 2.1 ± 0.47 | 2.13 ± 0.56 | – | – |
| RKPSVPWQRQMDQPQDRNQALGTH [RASAL3] | 4.08 ± 0.16 | 4.21 ± 0.19 | – | – |
| RLCTWLLALSPDLSLSNATVLTRS [FANCE] | 2.92 ± 0.47 | 3.02 ± 1 | – | – |
| RLLKTLETSRSHDLEAVVPQNGSE [ATP23] | 4 ± 0.23 | 4.09 ± 0.19 | – | – |
| RLLSHDQVAMPYQWEYPYLLSILP [JAGN1] | 2.15 ± 0.19 | 1.99 ± 0.16 | – | – |
| RLTSQDWERVHLIVAGGYDERVLE [ALG2] | 3.06 ± 0.28 | 3.21 ± 0.27 | – | – |
| RLVPGGQRPADVPEPGRAGYPAPR [HAGHL] | 4.59 ± 0.13 | 4.68 ± 0.1 | – | – |
| RLWRLFQTLDVNRDGGLCVNDLAV [SLC25A25] | 2.56 ± 0.2 | 2.49 ± 0.17 | – | – |
| RNLGSINTELQDVQRIMVANIEEV [SEC22B] | 4.1 ± 0.15 | 4.05 ± 0.044 | – | – |
| RPKDTVMCYRVRWEEAAPGRAVEH [MYORG] | 2.85 ± 0.39 | 2.91 ± 0.35 | – | – |
| RPSRSGAQQLEEEGPMEEEEAQPM [EID1] | 5.66 ± 0.25 | 5.53 ± 0.2 | – | – |
| RRNLEEDDYLHKDTGETSMLKRPV [STEAP1] | 4.69 ± 0.13 | 4.76 ± 0.19 | – | – |

| Sequence | protein stability index [1] | protein stability index [2] | protein stability index (treatment: DMSO, c terminus: native) | protein stability index (treatment: MLN4924 1 uM, 8 h, c terminus: native) |
| --- | --- | --- | --- | --- |
| RRSFLNAHHRSGAQVFPESPESES [GNAS] | 5.02 ± 0.25 | 5.03 ± 0.11 | – | – |
| RRSVRKNHMYSCRFSRQCVVDKDK [HNF4A] | 3.02 ± 0.24 | 3.2 ± 0.24 | – | – |
| RRTRGPVERAAAAAAAAAGGDAGH [C6orf223] | 4.91 ± 0.31 | 5.07 ± 0.17 | – | – |
| RSFVEKHRWPSNMYLKQLAEYRKY [RHOBTB3] | 2.38 ± 0.24 | 2.62 ± 0.74 | – | – |
| RSLFSSVPSKPPMSLEPQNGTYAG [ANKRD40] | 3.51 ± 0.19 | 4.29 ± 0.41 | – | – |
| RSLGPRAPSLRRHVLIHNTLQQLQ [SERTAD3] | 2.64 ± 0.25 | 3.05 ± 0.19 | – | – |
| RSLLRLRATRAGAAEEPGVRGLLA [C2CD2L] | 3.17 ± 0.43 | 3.44 ± 0.18 | – | – |
| RSQMQGPRTRARLGANEVLLVVGG [KLHL12] | 2.39 ± 0.39 | 2.62 ± 0.37 | – | – |
| RSSSRINIPERASGPEGNLNQIVT [FAM104B] | 4.28 ± 0.27 | 4.36 ± 0.2 | – | – |
| RTGLEKAAAGAVGLERRDWSPSPP [SPDEF] | 4.55 ± 0.2 | 4.49 ± 0.25 | – | – |
| RTLRNFINDEMQAKGIPQRAPPKR [PCMTD1] | 4.06 ± 0.16 | 3.98 ± 0.36 | – | – |
| RTSCSSRPCVPPSCHGYTLPGACN [KRT33B] | 2.67 ± 0.3 | 2.56 ± 0.17 | – | – |
| RTVKLIRYVSNWDFFIVGCEVIFC [PKD2L1] | 2.79 ± 0.56 | 2.58 ± 0.47 | – | – |
| RVYPKCTWLTTPKSTWPRYSKPGL [TCF25] | 2.59 ± 0.23 | 2.46 ± 0.12 | – | – |
| RYAEHVAATQALPQDSGTAAWKGR [C22orf31] | 4.1 ± 0.17 | 4.14 ± 0.35 | – | – |
| RYFIADLPHLQDSFVDKLLDLMPR [INTS4] | 2.16 ± 0.29 | 2.27 ± 0.29 | – | – |
| RYSSDTTPLLNGSSQDRMFETMAI [GOSR1] | 3.29 ± 0.77 | 3.27 ± 0.24 | – | – |
| SALPTGSPKRGTAPGDLSATEPAT [FBF1] | 5.32 ± 0.36 | 5.32 ± 0.086 | – | – |
| SDPCGQLRPTLLLTSLHHFMHSRN [PNLIPRP1] | 2.3 ± 0.35 | 2.6 ± 0.24 | – | – |
| SDVDQLYLIIRTLGKLIPRHQSIF [CDKL4] | 3 ± 1.2 | 2.67 ± 0.77 | – | – |
| SDVVEYAKEKLESFIKNSDSFDKF [PCMTD1] | 3.7 ± 0.17 | 4.16 ± 0.38 | – | – |
| SDWFNFHGHMCIAFELLGKNTFEF [CLK3] | 3 ± 0.3 | 2.94 ± 0.31 | – | – |
| SEDEEEYESGYAFLPDLLIFQMVI [SMG5] | 2.76 ± 0.62 | 2.59 ± 0.53 | – | – |

| Sequence | protein stability index [1] | protein stability index [2] | protein stability index (treatment: DMSO, c terminus: native) | protein stability index (treatment: MLN4924 1 uM, 8 h, c terminus: native) |
| --- | --- | --- | --- | --- |
| SERCQRQLQSLCRGLGLGGRRLKS [FANCE] | 3.22 ± 0.36 | 3.49 ± 0.47 | – | – |
| SFHPLQYIGFYGKETTNTCILKCN [PDS5B] | 1.99 ± 0.44 | 2.27 ± 0.35 | – | – |
| SFPRNNISYLVLSMISMGLFSIAP [JAGN1] | 3.32 ± 0.2 | 3.42 ± 0.42 | – | – |
| SGAVGARRFLLCLYLVGFLDLFGV [MFSD9] | 2.99 ± 0.54 | 2.84 ± 0.37 | – | – |
| SGRFAGREWYYGNVTRHQAECALN [NCK2] | 2.31 ± 0.16 | 2.47 ± 0.22 | – | – |
| SGSGNRLDGKKKGVEPSPSPIKPG [UFD1] | 4.61 ± 0.29 | 4.72 ± 0.079 | – | – |
| SHFVFVIEVKTKGGSKYLIYRRYR [NCF4] | 2.81 ± 0.56 | 2.48 ± 0.33 | – | – |
| SHHLAVYNSPQFKKTMSTFHNLVS [FBXO39] | 2.25 ± 0.28 | 2.31 ± 0.1 | – | – |
| SHKERFDPSGKGKGKAGRVDLVDE [TPPP] | 5.04 ± 0.46 | 5.24 ± 0.2 | – | – |
| SHLLVVEPEKLYAMPDPAGPDGHL [ESRRA] | 3.68 ± 0.17 | 3.82 ± 0.27 | – | – |
| SHYTSPSENMWNTGSTYNLSSGMA [CARM1] | 2.84 ± 0.37 | 3.14 ± 0.21 | – | – |
| SIAFRLRLASFDSSGKLICSRTTG [GMCL1] | 2.52 ± 0.4 | 2.09 ± 0.34 | – | – |
| SICMRMEILGCPLPDPNNYYHRRN [CPXM2] | 2.68 ± 0.27 | 2.46 ± 0.24 | – | – |
| SIVAQVDQTGSKSSNLLDLKNPFF [CARM1] | 3.01 ± 0.15 | 3.43 ± 0.27 | – | – |
| SKAQELGGAGREDPGLWSRLCRLA [ZSWIM9] | 2.96 ± 0.13 | 3.38 ± 0.33 | – | – |
| SKIFTTLDPASLAWLTEEEPEPAE [DDIT3] | 5.14 ± 0.54 | 5.11 ± 0.27 | – | – |
| SLDEFRQTWKLFSSHMNIDITDDC [PPEF2] | 2.49 ± 0.3 | 2.75 ± 0.21 | – | – |
| SLEHTLRVAIAHYQDDPDLRFLLD [TSPAN10] | 2.69 ± 0.16 | 2.98 ± 0.14 | – | – |
| SLGKQKVFIIRKSLLDELMEVQHF [SOAT2] | 2.58 ± 0.52 | 2.56 ± 0.73 | – | – |
| SLLGLLSFPRNNISYLVLSMISMG [JAGN1] | 3.11 ± 0.33 | 3.01 ± 0.71 | – | – |
